{"source": "patent US11725026B2", "about": "“Compositions and methods for inhibiting lactate dehydrogenase a activity” (Research Foundation for SUNY, priority 2019, dated 2023)", "key": {"LDHA (pTyr10-LDHA)": {"target": "T1, LDHA (pTyr10-LDHA) (Homo sapiens, UniProt P00338)", "T1 construct": "a panel of cancer cell lines were immunoblotted to observe levels of endogenous FLCN and pTyr10-LDHA; endogenous in cells; host or cells: Caki-1, HEK293, PC3, A549 and other human cancer cell lines", "assay": "LDHA activity in cells by pTyr10-LDHA immunoblot", "assay_type": "cell-based", "source_text": "The supernatant was then transferred to a fresh microtube."}, "ccRCC cell lines": {"test_system": "ccRCC cell lines", "assay": "Apoptosis / cell death in ccRCC renal cell lines (cleaved PARP/caspase-3 immunoblot, Annexin V/propidium iodide flow cytometry)", "assay_type": "cell-based, human", "settings": "Caki-1 cells, Western blot, normalized for amount of peptide residing in cells"}, "LDHA [1]": {"target": "T2, LDHA (Homo sapiens, UniProt P00338)", "T2 construct": "a complex of FLCN-10 peptide with full-length recombinant LDHA; 6xHis (leader of vector pRSET-A) (N); made in house; host or cells: E. coli BL21 (DE3)", "assay": "LDH activity assay (MAK066) with recombinant LDHA", "assay_type": "biochemical", "settings": "25 ng recombinant LDHA pre-incubated with peptide 30 min on ice", "protocol": "Lactate dehydrogenase activity was measured according to the manufacturer's protocol (MAK066, Sigma-Aldrich). […] Samples were then transferred to an optically clear 96-well plate and substrate mix was added to each well. Absorbance was measured at 450 nm every five minutes until saturation. […] All experiments were carried out in triplicate.\nLactate dehydrogenase activity was measured according to the manufacturer's protocol (MAK066, Sigma-Aldrich). […] Samples were then transferred to an optically clear 96-well plate and substrate mix was added to each well. Absorbance was measured at 450 nm every five min until saturation."}, "[2]": {"test_system": "renal tumor tissue and adjacent normal kidney-tissue from a BHD patient", "assay": "Ex vivo peptide treatment of BHD patient renal tumor and adjacent normal tissue", "set-up": "species or system human", "settings": "FLCN-10-Rhodamine B, 2 h at 37° C., fluorescence microscopy", "experimental": "Tumor tissues from the BHD patient were obtained with written informed consent from the Department of Urology at SUNY (State University of New York) Upstate Medical University. At the time of partial nephrectomy, which was done with <15 min of renal ischemia, BHD tumors were dissected into 3-5 mm^3 pieces and cultured on a presoaked gelatin sponge (Johnson & Johnson) in 24-well plates containing 2 ml RPMI-1640 with 10% FBS, antibiotic/antimycotic solution. Tissues were cultured at 37° C. for 16 hr, followed by the addition of the indicated concentrations of FLCN-10-Rhod-B and further incubation at 37° C. for 2 hr.\nTumor and adjacent normal renal tissue from the BHD patient were obtained with written informed consent on an Institutional Review Board (IRB)-approved protocol from the Department of Urology at SUNY Upstate Medical University. At the time of partial nephrectomy, which was done with <15 min of renal ischemia, BHD tumors were dissected into 3- to 5-mm^3 pieces and cultured on a presoaked gelatin sponge (Johnson & Johnson) in 24-well plates containing 2 ml RPMI-1640 with 10% FBS and antibiotic/antimycotic solution. Tissues were cultured at 37° C. for 16 h, followed by the addition of the indicated concentrations of FLCN-10-Rhod-B and further incubation at 37° C. for 2 h. […]"}, "LDHA [3]": {"target": "T2, LDHA", "assay": "Fluorescence anisotropy binding of Rhodamine-B-labeled FLCN peptides to recombinant LDHA", "experimental": "LDHA at the indicated concentrations was incubated on ice in 50 mM Tris pH 7.2, 150 mM NaCl, 1 mM TCEP, 4 mM MgCl2 with […] labelled FLCN peptide for 30 min.\nFluorescence anisotropy was measured using a SpectraMax 3 equipped with rhodamine fluorescence polarization module (lex\\lem.535 nm/595 nm). Curve fitting was done in KaleidaGraph 4.0.\nLDHA at the indicated concentrations was incubated on ice in 50 mM Tris pH 7.2, 150 mM NaCl, 1 mM TCEP, 4 mM MgCl2 with […] Rhodamine-B-labeled FLCN peptide for 30 min. Fluorescence anisotropy was measured in triplicate using a SpectraMax i3 equipped with rhodamine fluorescence polarization module (lex\\lem.535 nm/595 nm). Curve fitting was done in KaleidaGraph 4.0."}}, "note": "Where a SMILES comes first, the peptide text is derived from it. Where no end group is shown, it is not given here."}
{"compound": "PEGylated FLCN-10: FLCN-10 peptide modified by PEGylation to protect from cellular proteases (AQRMNTAFTP; also: PEGylated, site not given here)", "values": [{"measurement": "activity against LDHA in Caki-1 cells", "setting": "LDHA (pTyr10-LDHA)", "value": "effective at inhibiting LDHA activity"}, {"measurement": "pro-apoptotic activity of modified FLCN-10 peptides", "setting": "ccRCC cell lines", "value": "minimal pro-apoptotic activity"}]}
{"compound": "CSCC[C@H](NC(=O)[C@H](CCCNC(=N)N)NC(=O)[C@H](CCC(N)=O)NC(=O)[C@H](C)N)C(=O)N[C@@H](CC(N)=O)C(=O)N[C@H](C(=O)N[C@@H](C)C(=O)N[C@@H](Cc1ccccc1)C(=O)N[C@H](C(=O)N1CCC[C@H]1C(=O)O)[C@@H](C)O)[C@@H](C)O", "note": "[FLCN-10] (H-AQRMNTAFTP-OH; N-terminus and C-terminus assumed)", "values": [{"measurement": "inhibitory effect on LDHA activity", "setting": "LDHA [1]", "value": 70, "unit": "%"}, {"measurement": "tissue penetration ex vivo", "setting": "[2]", "value": "able to penetrate both normal and tumor tissues"}]}
{"compound": "QRMNTAFTPFL [FLCN-1, peptide derived from aa220-230 of FLCN]", "values": [{"measurement": "binding to LDHA (in words)", "setting": "LDHA [3]; determined by anisotropy", "value": "bound tightly to LDHA"}, {"measurement": "Ka of LDHA with FLCN peptide", "setting": "LDHA [3]; fluorescence polarization anisotropy, n=3", "value": "≈ 1×10^7"}]}
